T1: EsCas13d, nuclease-dead (Eubacterium siraeum, UniProt B0MS50, R295A;H300A;R849A;H854A)
T1 sequence: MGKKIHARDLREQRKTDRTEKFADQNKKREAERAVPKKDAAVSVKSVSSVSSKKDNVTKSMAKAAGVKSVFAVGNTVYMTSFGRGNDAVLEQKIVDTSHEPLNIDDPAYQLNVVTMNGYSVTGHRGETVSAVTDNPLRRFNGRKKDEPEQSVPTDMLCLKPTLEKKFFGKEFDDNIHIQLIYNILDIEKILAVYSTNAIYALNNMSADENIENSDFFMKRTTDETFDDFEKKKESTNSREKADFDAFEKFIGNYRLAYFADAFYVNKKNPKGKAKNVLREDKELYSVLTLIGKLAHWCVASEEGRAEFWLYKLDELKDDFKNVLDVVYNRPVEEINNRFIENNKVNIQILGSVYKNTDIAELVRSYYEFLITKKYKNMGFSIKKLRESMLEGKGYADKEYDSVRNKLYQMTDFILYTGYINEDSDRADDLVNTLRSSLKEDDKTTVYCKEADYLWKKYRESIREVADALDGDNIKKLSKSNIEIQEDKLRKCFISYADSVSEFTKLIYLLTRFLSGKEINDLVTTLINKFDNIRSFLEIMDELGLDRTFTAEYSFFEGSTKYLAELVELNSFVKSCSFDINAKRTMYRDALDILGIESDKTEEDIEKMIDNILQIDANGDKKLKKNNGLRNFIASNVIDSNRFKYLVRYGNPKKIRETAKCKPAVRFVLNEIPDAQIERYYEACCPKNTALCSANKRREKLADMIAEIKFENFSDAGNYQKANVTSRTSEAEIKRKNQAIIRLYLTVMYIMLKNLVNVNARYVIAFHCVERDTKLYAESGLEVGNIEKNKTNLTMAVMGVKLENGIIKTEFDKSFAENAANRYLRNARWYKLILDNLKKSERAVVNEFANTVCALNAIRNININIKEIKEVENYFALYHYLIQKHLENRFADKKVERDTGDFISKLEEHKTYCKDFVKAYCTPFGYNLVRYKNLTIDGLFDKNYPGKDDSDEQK


Target: T1, EsCas13d, nuclease-dead
Test: crRNA (strand 1, pre-loaded); Mg2+; 40 mM Tris-HCl pH 7.5, 150 mM NaCl, 6 mM MgCl2, 1 mM DTT, 0.1% Tween-20, 0.2 mg/ml BSA; 25 C; 10 min per concentration, then washed
Details: tags: His6-TwinStrep-SUMO cleaved; N-terminal SNAP kept (SNAP-Surface 488); label: 3' end held by stalled T7 RNA polymerase

Binder | Kd
target 1 MT 5'PFS UAG 3'PFS AUC (mixed) RNA 1: CACCCGUGCAAAAAUGCAGGGGUCUAAAACUGAGCGGAUAACCUCUCUAUGG RNA 2: GGGAAUGGAUCCACAUCUACGAAUUCUAGCCAUAGAGAGGUUAUCCGCUCAAUCAGAUCGGAAGAGCACACGU | 32 ± 9 nM
target 1 MT 5'PFS GCA 3'PFS CAU (mixed) RNA 1: CACCCGUGCAAAAAUGCAGGGGUCUAAAACUGAGCGGAUAACCUCUCUAUGG RNA 2: GGGAAUGGAUCCACAUCUACGAAUUCGCACCAUAGAGAGGUUAUCCGCUCACAUAGAUCGGAAGAGCACACGU | 35 ± 11 nM
target 1 U3C,C4G (mixed) RNA 1: CACCCGUGCAAAAAUGCAGGGGUCUAAAACUGAGCGGAUAACCUCUCUAUGG RNA 2: GGGAAUGGAUCCACAUCUACGAAUUCGUACCAUAGAGAGGUUAUCCGGCCACCGAGAUCGGAAGAGCACACGU | 11.4 ± 0.6 nM
target 1 MT 5'PFS GUC 3'PFS UUG (mixed) RNA 1: CACCCGUGCAAAAAUGCAGGGGUCUAAAACUGAGCGGAUAACCUCUCUAUGG RNA 2: GGGAAUGGAUCCACAUCUACGAAUUCGUCCCAUAGAGAGGUUAUCCGCUCAUUGAGAUCGGAAGAGCACACGU | 11.9 ± 1.75 nM
target 1 MT 5'PFS GUC 3'PFS AUA (mixed) RNA 1: CACCCGUGCAAAAAUGCAGGGGUCUAAAACUGAGCGGAUAACCUCUCUAUGG RNA 2: GGGAAUGGAUCCACAUCUACGAAUUCGUCCCAUAGAGAGGUUAUCCGCUCAAUAAGAUCGGAAGAGCACACGU | 26 ± 7 nM
target 1 U8A,A9U (mixed) RNA 1: CACCCGUGCAAAAAUGCAGGGGUCUAAAACUGAGCGGAUAACCUCUCUAUGG RNA 2: GGGAAUGGAUCCACAUCUACGAAUUCGUACCAUAGAGAGGUUUACCGCUCACCGAGAUCGGAAGAGCACACGU | 12.9 ± 0.8 nM
target 1 MT 5'PFS GUC 3'PFS AUC (mixed) RNA 1: CACCCGUGCAAAAAUGCAGGGGUCUAAAACUGAGCGGAUAACCUCUCUAUGG RNA 2: GGGAAUGGAUCCACAUCUACGAAUUCGUCCCAUAGAGAGGUUAUCCGCUCAAUCAGAUCGGAAGAGCACACGU | 28.5 ± 11 nM
target 1 MT 5'PFS GUC 3'PFS AUU (mixed) RNA 1: CACCCGUGCAAAAAUGCAGGGGUCUAAAACUGAGCGGAUAACCUCUCUAUGG RNA 2: GGGAAUGGAUCCACAUCUACGAAUUCGUCCCAUAGAGAGGUUAUCCGCUCAAUUAGAUCGGAAGAGCACACGU | 16.1 ± 2.15 nM
target 1 MT 5'PFS CAG 3'PFS ACA (mixed) RNA 1: CACCCGUGCAAAAAUGCAGGGGUCUAAAACUGAGCGGAUAACCUCUCUAUGG RNA 2: GGGAAUGGAUCCACAUCUACGAAUUCCAGCCAUAGAGAGGUUAUCCGCUCAACAAGAUCGGAAGAGCACACGU | 31 ± 15.5 nM
target 1 MT 5'PFS CUA 3'PFS UAG (mixed) RNA 1: CACCCGUGCAAAAAUGCAGGGGUCUAAAACUGAGCGGAUAACCUCUCUAUGG RNA 2: GGGAAUGGAUCCACAUCUACGAAUUCCUACCAUAGAGAGGUUAUCCGCUCAUAGAGAUCGGAAGAGCACACGU | 4.9 ± 0.9 nM
target 1 MT 5'PFS GUC 3'PFS UUC (mixed) RNA 1: CACCCGUGCAAAAAUGCAGGGGUCUAAAACUGAGCGGAUAACCUCUCUAUGG RNA 2: GGGAAUGGAUCCACAUCUACGAAUUCGUCCCAUAGAGAGGUUAUCCGCUCAUUCAGAUCGGAAGAGCACACGU | 19.1 ± 4.5 nM
target 1 MT 5'PFS GUA 3'PFS UCC (mixed) RNA 1: CACCCGUGCAAAAAUGCAGGGGUCUAAAACUGAGCGGAUAACCUCUCUAUGG RNA 2: GGGAAUGGAUCCACAUCUACGAAUUCGUACCAUAGAGAGGUUAUCCGCUCAUCCAGAUCGGAAGAGCACACGU | 7.33 ± 0.61 nM
target 1 MT 5'PFS CAG 3'PFS ACC (mixed) RNA 1: CACCCGUGCAAAAAUGCAGGGGUCUAAAACUGAGCGGAUAACCUCUCUAUGG RNA 2: GGGAAUGGAUCCACAUCUACGAAUUCCAGCCAUAGAGAGGUUAUCCGCUCAACCAGAUCGGAAGAGCACACGU | 24 ± 11.5 nM
target 1 MT 5'PFS CUA 3'PFS UAA (mixed) RNA 1: CACCCGUGCAAAAAUGCAGGGGUCUAAAACUGAGCGGAUAACCUCUCUAUGG RNA 2: GGGAAUGGAUCCACAUCUACGAAUUCCUACCAUAGAGAGGUUAUCCGCUCAUAAAGAUCGGAAGAGCACACGU | 6 ± 1.3 nM
target 1 MT 5'PFS GCA 3'PFS CAA (mixed) RNA 1: CACCCGUGCAAAAAUGCAGGGGUCUAAAACUGAGCGGAUAACCUCUCUAUGG RNA 2: GGGAAUGGAUCCACAUCUACGAAUUCGCACCAUAGAGAGGUUAUCCGCUCACAAAGAUCGGAAGAGCACACGU | ~32.5 nM
target 1 MT 5'PFS GUA 3'PFS UCA (mixed) RNA 1: CACCCGUGCAAAAAUGCAGGGGUCUAAAACUGAGCGGAUAACCUCUCUAUGG RNA 2: GGGAAUGGAUCCACAUCUACGAAUUCGUACCAUAGAGAGGUUAUCCGCUCAUCAAGAUCGGAAGAGCACACGU | 12.3 ± 0.95 nM
target 1 MT 5'PFS GUG 3'PFS AGA (mixed) RNA 1: CACCCGUGCAAAAAUGCAGGGGUCUAAAACUGAGCGGAUAACCUCUCUAUGG RNA 2: GGGAAUGGAUCCACAUCUACGAAUUCGUGCCAUAGAGAGGUUAUCCGCUCAAGAAGAUCGGAAGAGCACACGU | 15.9 ± 1 nM
target 1 MT 5'PFS GUA 3'PFS UCG (mixed) RNA 1: CACCCGUGCAAAAAUGCAGGGGUCUAAAACUGAGCGGAUAACCUCUCUAUGG RNA 2: GGGAAUGGAUCCACAUCUACGAAUUCGUACCAUAGAGAGGUUAUCCGCUCAUCGAGAUCGGAAGAGCACACGU | 8.56 ± 0.55 nM
target 1 MT 5'PFS GCA 3'PFS CAG (mixed) RNA 1: CACCCGUGCAAAAAUGCAGGGGUCUAAAACUGAGCGGAUAACCUCUCUAUGG RNA 2: GGGAAUGGAUCCACAUCUACGAAUUCGCACCAUAGAGAGGUUAUCCGCUCACAGAGAUCGGAAGAGCACACGU | ~36.5 nM
target 1 MT 5'PFS CUA 3'PFS UAC (mixed) RNA 1: CACCCGUGCAAAAAUGCAGGGGUCUAAAACUGAGCGGAUAACCUCUCUAUGG RNA 2: GGGAAUGGAUCCACAUCUACGAAUUCCUACCAUAGAGAGGUUAUCCGCUCAUACAGAUCGGAAGAGCACACGU | ~3.9 nM
target 1 MT 5'PFS CUA 3'PFS AGU (mixed) RNA 1: CACCCGUGCAAAAAUGCAGGGGUCUAAAACUGAGCGGAUAACCUCUCUAUGG RNA 2: GGGAAUGGAUCCACAUCUACGAAUUCCUACCAUAGAGAGGUUAUCCGCUCAAGUAGAUCGGAAGAGCACACGU | 12.2 ± 3.65 nM
target 1 C7A,G12A (mixed) RNA 1: CACCCGUGCAAAAAUGCAGGGGUCUAAAACUGAGCGGAUAACCUCUCUAUGG RNA 2: GGGAAUGGAUCCACAUCUACGAAUUCGUACCAUAGAGAGAUUAUACGCUCACCGAGAUCGGAAGAGCACACGU | 9.6 ± 0.8 nM
target 1 MT 5'PFS GUA 3'PFS UCU (mixed) RNA 1: CACCCGUGCAAAAAUGCAGGGGUCUAAAACUGAGCGGAUAACCUCUCUAUGG RNA 2: GGGAAUGGAUCCACAUCUACGAAUUCGUACCAUAGAGAGGUUAUCCGCUCAUCUAGAUCGGAAGAGCACACGU | 8.3 ± 0.95 nM
target 1 MT 5'PFS GUC 3'PFS AUG (mixed) RNA 1: CACCCGUGCAAAAAUGCAGGGGUCUAAAACUGAGCGGAUAACCUCUCUAUGG RNA 2: GGGAAUGGAUCCACAUCUACGAAUUCGUCCCAUAGAGAGGUUAUCCGCUCAAUGAGAUCGGAAGAGCACACGU | 24.5 ± 4 nM
target 1 MT 5'PFS UUU 3'PFS AGC (mixed) RNA 1: CACCCGUGCAAAAAUGCAGGGGUCUAAAACUGAGCGGAUAACCUCUCUAUGG RNA 2: GGGAAUGGAUCCACAUCUACGAAUUCUUUCCAUAGAGAGGUUAUCCGCUCAAGCAGAUCGGAAGAGCACACGU | 68 ± 27.5 nM
target 1 MT 5'PFS CAG 3'PFS ACG (mixed) RNA 1: CACCCGUGCAAAAAUGCAGGGGUCUAAAACUGAGCGGAUAACCUCUCUAUGG RNA 2: GGGAAUGGAUCCACAUCUACGAAUUCCAGCCAUAGAGAGGUUAUCCGCUCAACGAGAUCGGAAGAGCACACGU | 19.5 ± 5.15 nM
target 1 MT 5'PFS CUA 3'PFS AGG (mixed) RNA 1: CACCCGUGCAAAAAUGCAGGGGUCUAAAACUGAGCGGAUAACCUCUCUAUGG RNA 2: GGGAAUGGAUCCACAUCUACGAAUUCCUACCAUAGAGAGGUUAUCCGCUCAAGGAGAUCGGAAGAGCACACGU | 41 ± 19 nM
target 1 MT 5'PFS UAG 3'PFS AUA (mixed) RNA 1: CACCCGUGCAAAAAUGCAGGGGUCUAAAACUGAGCGGAUAACCUCUCUAUGG RNA 2: GGGAAUGGAUCCACAUCUACGAAUUCUAGCCAUAGAGAGGUUAUCCGCUCAAUAAGAUCGGAAGAGCACACGU | 31.3 ± 4.95 nM
